Test results as given in PMC9633773, “Discovering cell-active BCL6 inhibitors: effectively combining biochemical HTS with multiple biophysical techniques, X-ray crystallography and cell-based assays” (Scientific Reports, 2022).

Target: Trx-6His-HRV3C-BCL6 (Thioredoxin-6His-tagged BCL6 BTB, uncleaved) (human), P41182
Assay: AlphaScreen or HTRF; TR-FRET competition: 1 or 10 nM Trx-6His-BCL6 BTB, 300 nM BCOR-A633, 0.5 or 1 nM anti-6His-Terbium cryptate; 25 mM Hepes pH 8, 100 mM NaCl, 0.05% Tween20, 0.5 mM TCEP, 0.05% BSA; 2 h at room temperature

IC50: 8 µM
Binder: RSEIISTAPSSWVVPGP (modifications not checked) [unlabelled BCOR peptide (17 residue BCOR peptide)]
